Data set [1] deals with HeLa Kyoto. The data set can be described thus: solubility in G1/S (NP-40 vs SDS abundance) (log2 ratio); higher = more soluble. Particulars: cell cycle stage: G1/S.
The subject of data set [2] is HeLa Kyoto. Kind of data set: thermal stability score vs G1/S (z-score of summed log2 fold changes over temperatures); higher = more thermally stable than in G1/S.
Data set [3] deals with HeLa Kyoto. The data set can be described thus: solubility change mitosis vs G1/S (difference of NP-40 vs SDS log2 ratios) (log2 ratio difference); higher = more soluble in mitosis.
Data set [4] has as its system HeLa Kyoto. The data set can be described thus: melting temperature (median over replicates), in situ; higher = more thermally stable.
Setting [5] is: cell cycle stage: early G1 (4.5 h after nocodazole release).
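Throughout, for melting temperature (median over replicates), in situ: HeLa Kyoto cells synchronized by double thymidine or nocodazole block, proteins quantified by TMT10plex mass spectrometry, three independent biological replicates.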
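Throughout, for solubility change mitosis vs G1/S (difference of NP-40 vs SDS log2 ratios): synchronized HeLa Kyoto cells (double thymidine block for G1/S, nocodazole release for mitosis), protein amounts in NP-40 versus SDS lysates quantified by mass spectrometry, three biological replicates.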
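Throughout, for solubility in G1/S (NP-40 vs SDS abundance): HeLa Kyoto cells arrested at G1/S by double thymidine block, proteins quantified by TMT10plex mass spectrometry in mild NP-40 versus SDS extracts, three biological replicates.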
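Throughout, for thermal stability score vs G1/S (z-score of summed log2 fold changes over temperatures): synchronized HeLa Kyoto cells, proteins quantified by TMT10plex mass spectrometry, three biological replicates, mitosis taken 0.5 h after nocodazole release, G1/S directly after double thymidine block.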

Consider “MAAAGQLCLLYLSAGLLSRLGAAFNLDTREDNVIRKYGDPGSLFGFSLAMHWQLQPEDKRLLLVGAPRAEALPLQRANRTGGLYSCDITARGPCTRIEFDNDADPTSESKEDQWMGVTVQSQGPGGKVVTCAHRYEKRQHVNTKQESRDIFGRCYVLSQNLRIEDDMDGGDWSFCDGRLRGHEKFGSCQQGVAATFTKDFHYIVFGAPGTYNWKGIVRVEQKNNTFFDMNIFEDGPYEVGGETEHDESLVPVPANSYLGLLFLTSVSYTDPDQFVYKTRPPREQPDTFPDVMMNSYLGFSLDSGKGIVSKDEITFVSGAPRANHSGAVVLLKRDMKSAHLLPEHIFDGEGLASSFGYDVAVVDLNKDGWQDIVIGAPQYFDRDGEVGGAVYVYMNQQGRWNNVKPIRLNGTKDSMFGIAVKNIGDINQDGYPDIAVGAPYDDLGKVFIYHGSANGINTKPTQVLKGISPYFGYSIAGNMDLDRNSYPDVAVGSLSDSVTIFRSRPVINIQKTITVTPNRIDLRQKTACGAPSGICLQVKSCFEYTANPAGYNPSISIVGTLEAEKERRKSGLSSRVQFRNQGSEPKYTQELTLKRQKQKVCMEETLWLQDNIRDKLRPIPITASVEIQEPSSRRRVNSLPEVLPILNSDEPKTAHIDVHFLKEGCGDDNVCNSNLKLEYKFCTREGNQDKFSYLPIQKGVPELVLKDQKDIALEITVTNSPSNPRNPTKDGDDAHEAKLIATFPDTLTYSAYRELRAFPEKQLSCVANQNGSQADCELGNPFKRNSNVTFYLVLSTTEVTFDTPDLDINLKLETTSNQDNLAPITAKAKVVIELLLSVSGVAKPSQVYFGGTVVGEQAMKSEDEVGSLIEYEFRVINLGKPLTNLGTATLNIQWPKEISNGKWLLYLVKVESKGLEKVTCEPQKEINSLNLTESHNSRKKREITEKQIDDNRKFSLFAERKYQTLNCSVNVNCVNIRCPLRGLDSKASLILRSRLWNSTFLEEYSKLNYLDILMRAFIDVTAAAENIRLPNAGTQVRVTVFPSKTVAQYSGVPWWIILVAILAGILMLALLVFILWKCGFFKRSRYDDSVPRYHAVRIRKEEREIKDEKYIDNLEKKQWITKWNENESYS [ITGA6]”, for which the “solubility in G1/S (log2)” value in data set [1] is 0.154. Moreover, the thermal stability score in data set [2] (setting [5]) is -2.3; in data set [2] (cell cycle stage: mitosis), -1.75. In data set [3], the “solubility change mitosis (log2)” value was -0.116. For the same sequence, the melting temperature in data set [4] (cell cycle stage: G1/S) was 55.4 °C; in data set [4] (cell cycle stage: mitosis) it was 55.6 °C.
With “MAAAMVPGRSESWERGEPGRPALYFCGSIRGGREDRTLYERIVSRLRRFGTVLTEHVAAAELGARGEEAAGGDRLIHEQDLEWLQQADVVVAEVTQPSLGVGYELGRAVAFNKRILCLFRPQSGRVLSAMIRGAADGSRFQVWDYEEGEVEALLDRYFEADPPGQVAASPDPTT [DNPH1]”, the “solubility in G1/S (log2)” value in data set [1] stood at 0.392. Besides, the results for the thermal stability score in data set [2] (setting [5]) and in data set [2] (cell cycle stage: mitosis) were -1.99 and -2.01, respectively. The “solubility change mitosis (log2)” value in data set [3] was 0.00918. Besides, the melting temperature in data set [4] (cell cycle stage: G1/S) and in data set [4] (cell cycle stage: mitosis) was 55.3 °C each time.
For the sequence “MAAAQEADGARSAVVAAGGGSSGQVTSNGSIGRDPPAETQPQNPPAQPAPNAWQVIKGVLFRIFIIWAISSWFRRGPAPQDQAGPGGAPRVASRNLFPKDTLMNLHVYISEHEHFTDFNATSALFWEQHDLVYGDWTSGENSDGCYEHFAELDIPQSVQQNGSIYIHVYFTKSGFHPDPRQKALYRRLATVHMSRMINKYKRRRFQKTKNLLTGETEADPEMIKRAEDYGPVEVISHWHPNITINIVDDHTPWVKGSVPPPLDQYVKFDAVSGDYYPIIYFNDYWNLQKDYYPINESLASLPLRVSFCPLSLWRWQLYAAQSTKSPWNFLGDELYEQSDEEQDSVKVALLETNPYLLALTIIVSIVHSVFEFLAFKNDIQFWNSRQSLEGLSVRSVFFGVFQSFVVLLYILDNETNFVVQVSVFIGVLIDLWKITKVMDVRLDREHRVAGIFPRLSFKDKSTYIESSTKVYDDMAFRYLSWILFPLLGCYAVYSLLYLEHKGWYSWVLSMLYGFLLTFGFITMTPQLFINYKLKSVAHLPWRMLTYKALNTFIDDLFAFVIKMPVMYRIGCLRDDVVFFIYLYQRWIYRVDPTRVNEFGMSGEDPTAAAPVAEVPTAAGALTPTPAPTTTTATREEASTSLPTKPTQGASSASEPQEAPPKPAEDKKKD [CLPTM1]”, the “solubility in G1/S (log2)” value in data set [1] was -0.0403. Besides, the thermal stability score is 3.21 in data set [2] (setting [5]) and 0.298 in data set [2] (cell cycle stage: mitosis). Besides, the “solubility change mitosis (log2)” value in data set [3] was -0.142. The melting temperature in data set [4] (cell cycle stage: G1/S) stood at 53.4 °C; in data set [4] (cell cycle stage: mitosis), 53.8 °C.
As for “MAAARPSLGRVLPGSSVLFLCDMQEKFRHNIAYFPQIVSVAARMLKVARLLEVPVMLTEQYPQGLGPTVPELGTEGLRPLAKTCFSMVPALQQELDSRPQLRSVLLCGIEAQACILNTTLDLLDRGLQVHVVVDACSSRSQVDRLVALARMRQSGAFLSTSEGLILQLVGDAVHPQFKEIQKLIKEPAPDSGLLGLFQGQNSLLH [ISOC2]”, the “solubility in G1/S (log2)” value in data set [1] amounted to 0.188. The thermal stability score in data set [2] (setting [5]) is 1.82; in data set [2] (cell cycle stage: mitosis), -1.19. In addition, the “solubility change mitosis (log2)” value in data set [3] was -0.173. Moreover, the melting temperature in data set [4] (cell cycle stage: G1/S) turned out to be 55.1 °C; in data set [4] (cell cycle stage: mitosis), 54.9 °C.
As for “MAAASGYTDLREKLKSMTSRDNYKAGSREAAAAAAAAVAAAAAAAAAAEPYPVSGAKRKYQEDSDPERSDYEEQQLQKEEEARKVKSGIRQMRLFSQDECAKIEARIDEVVSRAEKGLYNEHTVDRAPLRNKYFFGEGYTYGAQLQKRGPGQERLYPPGDVDEIPEWVHQLVIQKLVEHRVIPEGFVNSAVINDYQPGGCIVSHVDPIHIFERPIVSVSFFSDSALCFGCKFQFKPIRVSEPVLSLPVRRGSVTVLSGYAADEITHCIRPQDIKERRAVIILRKTRLDAPRLETKSLSSSVLPPSYASDRLSGNNRDPALKPKRSHRKADPDAAHRPRILEMDKEENRRSVLLPTHRRRGSFSSENYWRKSYESSEDCSEAAGSPARKVKMRRH [ALKBH5]”, the “solubility in G1/S (log2)” value in data set [1] is -0.0973. The thermal stability score in data set [2] (setting [5]) was 3.65; in data set [2] (cell cycle stage: mitosis) it was -0.482. In addition, the “solubility change mitosis (log2)” value in data set [3] is 0.0485. The melting temperature in data set [4] (cell cycle stage: G1/S) came to 51 °C; in data set [4] (cell cycle stage: mitosis), 51.4 °C.
Consider “MAAASVTPPGSLELLQPGFSKTLLGTKLEAKYLCSACRNVLRRPFQAQCGHRYCSFCLASILSSGPQNCAACVHEGIYEEGISILESSSAFPDNAARREVESLPAVCPSDGCTWKGTLKEYESCHEGRCPLMLTECPACKGLVRLGEKERHLEHECPERSLSCRHCRAPCCGADVKAHHEVCPKFPLTCDGCGKKKIPREKFQDHVKTCGKCRVPCRFHAIGCLETVEGEKQQEHEVQWLREHLAMLLSSVLEAKPLLGDQSHAGSELLQRCESLEKKTATFENIVCVLNREVERVAMTAEACSRQHRLDQDKIEALSSKVQQLERSIGLKDLAMADLEQKVLEMEASTYDGVFIWKISDFARKRQEAVAGRIPAIFSPAFYTSRYGYKMCLRIYLNGDGTGRGTHLSLFFVVMKGPNDALLRWPFNQKVTLMLLDQNNREHVIDAFRPDVTSSSFQRPVNDMNIASGCPLFCPVSKMEAKNSYVRDDAIFIKAIVDLTGL [TRAF2]”, for which the “solubility in G1/S (log2)” value in data set [1] came to 0.0627. Besides, the thermal stability score was -0.77 in data set [2] (setting [5]) and -1.17 in data set [2] (cell cycle stage: mitosis). Moreover, the “solubility change mitosis (log2)” value in data set [3] was -0.084. Besides, the figures for the melting temperature in data set [4] (cell cycle stage: G1/S) and in data set [4] (cell cycle stage: mitosis) were 52.5 °C and 52.2 °C, respectively.
